Assay results published in article PMC8330776.

Molecular target: SARS-CoV-2 S trimer (SARS-CoV-2) (UniProt P0DTC2)
Test: SPR

**Q.** Which Kd does the source give for “Lentil lectin derived from Lens culinaris (natural protein)” here?
**A.** 8.67 nM

**Q.** What about the koff of the same substance?
**A.** 0.000919 s⁻¹

**Q.** And the kon?
**A.** 106000 M⁻¹ s⁻¹

**Q.** How did the Kd turn out when “erythroagglutinin PHA-E from Phaseolus vulgaris (red kidney bean) (from UniProt P05088 22-275) (natural protein)” was run?
**A.** 160 nM

**Q.** And the koff?
**A.** 0.00331 s⁻¹

**Q.** And the kon?
**A.** 20700 M⁻¹ s⁻¹

**Q.** For “lectin from Datura stramonium (jimson weed, thorn apple) (natural protein)”, which Kd is on record?
**A.** 0.823 nM

**Q.** And the koff?
**A.** 0.00144 s⁻¹

**Q.** What about the kon of the same substance?
**A.** 1.75e+06 M⁻¹ s⁻¹

**Q.** What does the source list for “lectin from Galanthus nivalis (snowdrop) (natural protein)”?
**A.** Kd: 1.53 nM; koff: 0.00121 s⁻¹; kon: 792000 M⁻¹ s⁻¹

**Q.** “leucoagglutinin PHA-L from Phaseolus vulgaris (red kidney bean) (from UniProt P05087 21-272) (natural protein)” was tested. Which Kd did it give?
**A.** 37.6 nM

**Q.** What about the koff of the same substance?
**A.** 0.00262 s⁻¹

**Q.** And the kon?
**A.** 69700 M⁻¹ s⁻¹

**Q.** Which results are given for “phytohaemagglutinin PHA-M from Phaseolus vulgaris (red kidney bean) (natural protein)”?
**A.** Kd: 2480 nM; koff: 0.0196 s⁻¹; kon: 7890 M⁻¹ s⁻¹

**Q.** How did the Kd turn out when “phytohaemagglutinin PHA-P from Phaseolus vulgaris (red kidney bean) (natural protein)” was run?
**A.** 32.5 nM

**Q.** What about the koff of the same substance?
**A.** 0.00501 s⁻¹

**Q.** And the kon?
**A.** 154000 M⁻¹ s⁻¹

**Q.** How did the Kd turn out when “sambucus sieboldiana lectin (natural protein)” was run?
**A.** 31.5 nM

**Q.** What about the koff of the same substance?
**A.** 0.000886 s⁻¹

**Q.** What about the kon of the same substance?
**A.** 28100 M⁻¹ s⁻¹

**Q.** For “succinyl-concanavalin A (natural protein)”, which Kd is on record?
**A.** 201000 nM

**Q.** What about the koff of the same substance?
**A.** 0.00148 s⁻¹

**Q.** What about the kon of the same substance?
**A.** 7.37 M⁻¹ s⁻¹
